Consider 19 molecules from paper PMC9352680, “A comprehensive thermodynamic model for RNA binding by the Saccharomyces cerevisiae Pumilio protein PUF4”.

In this data set the target is T1, PUF4 RNA-binding domain (Saccharomyces cerevisiae, UniProt P25339 537-888).
T1 sequence: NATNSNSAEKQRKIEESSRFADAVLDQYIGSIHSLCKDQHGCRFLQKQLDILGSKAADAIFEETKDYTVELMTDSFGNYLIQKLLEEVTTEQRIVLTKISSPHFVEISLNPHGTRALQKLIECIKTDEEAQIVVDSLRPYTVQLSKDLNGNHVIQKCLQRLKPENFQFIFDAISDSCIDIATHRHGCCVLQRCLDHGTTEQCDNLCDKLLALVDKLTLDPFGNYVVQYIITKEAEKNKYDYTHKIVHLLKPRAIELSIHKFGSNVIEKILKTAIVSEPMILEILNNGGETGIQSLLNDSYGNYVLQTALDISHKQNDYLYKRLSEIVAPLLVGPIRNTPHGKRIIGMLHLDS
Nature of the data set: Mg; RNA-MaP; 20 mM Na-HEPES pH 7.4, 30 mM KOAc, 0.75 mM MgCl2, 0.1% Tween-20, 5% glycerol, 0.1 mg/mL BSA, 2 mM DTT; 25 C; 0.0125-409.6 nM protein. The note with it: tags: N-His6-TEV cleaved; C-SNAP kept, Cy3B-labelled; label: tethered on chip by stalled RNA polymerase.

Where only a bound is given, the exact number is not on record here.

B1: Ia_S4_P4E.1_K4.1_C4.1_H4.1_A4.1_[A6T]_F4.1_T4.1 (ssRNA)
RNA: UUUGACAACUGAUCGUUCUUUCUUGUAUUUUAUUCUUUCUCGAUCAGUUGUCUUU
As for B1, the dissociation constant (Kd) was 0.00124 µM.

B2: Ib_S4_P5E.1_K5.1_C5.1_H5.1_[G2C]_[A4T]_A5.1_F5.1_T5.1 (ssRNA)
RNA: UUUGACAACUGAUCGUUCUUUCUUCUUUUAUUAUUCUUUCUCGAUCAGUUGUCUUU
B2: the Kd is greater than 2.3 µM.

B3: Ib_S4_P5E.1_K5.1_C5.1_H5.1_[T1A]_A5.1_[T6C]_F5.1_T5.1 (ssRNA)
RNA: UUUGACAACUGAUCGUUCUUUCUAGUAUCAUUAUUCUUUCUCGAUCAGUUGUCUUU
Molecule B3 displayed a dissociation constant (Kd) greater than 2.3 µM.

B4: Ib_S4_P5E.1_K5.1_C5.1_H5.1_[T1C]_A5.1_[T6C]_F5.1_T5.1 (ssRNA)
RNA: UUUGACAACUGAUCGUUCUUUCUCGUAUCAUUAUUCUUUCUCGAUCAGUUGUCUUU
Molecule B4 yielded a Kd of 0.637 µM.

B5: Ib_S4_P5E.1_K5.1_C5.1_H5.1_[T3C]_[A4C]_A5.1_F5.1_T5.1 (ssRNA)
RNA: UUUGACAACUGAUCGUUCUUUCUUGCCUUAUUAUUCUUUCUCGAUCAGUUGUCUUU
The molecule B5 came in with a Kd of 0.862 µM.

B6: Ib_S4_P5E.1_K5.1_C5.1_H5.1_[G2T]_[A4G]_A5.1_F5.1_T5.1 (ssRNA)
RNA: UUUGACAACUGAUCGUUCUUUCUUUUGUUAUUAUUCUUUCUCGAUCAGUUGUCUUU
Take B6: the Kd came out at 0.491 µM.

B7: Ib_S4_P5E.1_K5.1_C5.1_H5.1_[T1C]_A5.1_[A7T]_F5.1_T5.1 (ssRNA)
RNA: UUUGACAACUGAUCGUUCUUUCUCGUAUUUUUAUUCUUUCUCGAUCAGUUGUCUUU
The molecule B7 yielded a Kd of 0.37 µM.

B8: Ib_S4_P5E.1_K5.1_C5.1_H5.1_[G2A]_A5.1_[T5G]_F5.1_T5.1 (ssRNA)
RNA: UUUGACAACUGAUCGUUCUUUCUUAUAGUAUUAUUCUUUCUCGAUCAGUUGUCUUU
In turn, B8 returned a Kd of 1.94 µM.

B9: Ib_S4_P5E.1_K5.1_C5.1_H5.1_[G2C]_A5.1_[T6C]_F5.1_T5.1 (ssRNA)
RNA: UUUGACAACUGAUCGUUCUUUCUUCUAUCAUUAUUCUUUCUCGAUCAGUUGUCUUU
B9 showed a Kd of 1.94 µM.

B10: Ib_S4_P5E.1_K5.1_C5.1_H5.1_[G2T]_A5.1_[T5C]_F5.1_T5.1 (ssRNA)
RNA: UUUGACAACUGAUCGUUCUUUCUUUUACUAUUAUUCUUUCUCGAUCAGUUGUCUUU
On to B10, for which the Kd is greater than 2.3 µM.

B11: Ib_S4_P5E.1_K5.1_C5.1_H5.1_[G2A]_[A4T]_A5.1_F5.1_T5.1 (ssRNA)
RNA: UUUGACAACUGAUCGUUCUUUCUUAUUUUAUUAUUCUUUCUCGAUCAGUUGUCUUU
B11: binding was put at a Kd of 1.44 µM.

B12: Ib_S4_P5E.1_K5.1_C5.1_H5.1_[T1C]_A5.1_[T6A]_F5.1_T5.1 (ssRNA)
RNA: UUUGACAACUGAUCGUUCUUUCUCGUAUAAUUAUUCUUUCUCGAUCAGUUGUCUUU
B12 came in with a Kd of 1.04 µM.

B13: Ib_S4_P5E.1_K5.1_C5.1_H5.1_[G2T]_A5.1_[T5A]_F5.1_T5.1 (ssRNA)
RNA: UUUGACAACUGAUCGUUCUUUCUUUUAAUAUUAUUCUUUCUCGAUCAGUUGUCUUU
In the case of B13, the Kd was greater than 2.3 µM.

B14: Ib_S4_P5E.1_K5.1_C5.1_H5.1_[T1C]_A5.1_[A7G]_F5.1_T5.1 (ssRNA)
RNA: UUUGACAACUGAUCGUUCUUUCUCGUAUUGUUAUUCUUUCUCGAUCAGUUGUCUUU
B14 gave a Kd of 2.2 µM.

B15: Ib_S4_P5E.1_K5.1_C5.1_H5.1_[T3G]_[A4T]_A5.1_F5.1_T5.1 (ssRNA)
RNA: UUUGACAACUGAUCGUUCUUUCUUGGUUUAUUAUUCUUUCUCGAUCAGUUGUCUUU
For the molecule B15, binding was characterised by a dissociation constant (Kd) of 0.745 µM.

B16: Ib_S4_P5E.1_K5.1_C5.1_H5.1_[T3G]_[A4C]_A5.1_F5.1_T5.1 (ssRNA)
RNA: UUUGACAACUGAUCGUUCUUUCUUGGCUUAUUAUUCUUUCUCGAUCAGUUGUCUUU
Regarding B16, binding was put at a Kd of 1.88 µM.

B17: Ib_S4_P5E.1_K5.1_C5.1_H5.1_[T3C]_[A4T]_A5.1_F5.1_T5.1 (ssRNA)
RNA: UUUGACAACUGAUCGUUCUUUCUUGCUUUAUUAUUCUUUCUCGAUCAGUUGUCUUU
In turn, B17 yielded a dissociation constant Kd of 0.453 µM.

B18: Ib_S4_P5E.1_K5.1_C5.1_H5.1_[T1C]_A5.1_[T5G]_F5.1_T5.1 (ssRNA)
RNA: UUUGACAACUGAUCGUUCUUUCUCGUAGUAUUAUUCUUUCUCGAUCAGUUGUCUUU
B18 displayed a Kd greater than 2.3 µM.

B19: Ib_S4_P5E.1_K5.1_C5.1_H5.1_[G2C]_A5.1_[T5A]_F5.1_T5.1 (ssRNA)
RNA: UUUGACAACUGAUCGUUCUUUCUUCUAAUAUUAUUCUUUCUCGAUCAGUUGUCUUU
B19 displayed a Kd greater than 2.3 µM.
